Assay results taken from paper doi:10.1101/2022.10.22.513346 (bioRxiv, 2022).
No end group written: not given here.

T1: N-terminal intrinsically disordered region (IDR) of ATG8 INTERACTING PROTEIN1 (ATI1) (Arabidopsis thaliana, UniProt O82775 1-180)
T1 sequence (looked up): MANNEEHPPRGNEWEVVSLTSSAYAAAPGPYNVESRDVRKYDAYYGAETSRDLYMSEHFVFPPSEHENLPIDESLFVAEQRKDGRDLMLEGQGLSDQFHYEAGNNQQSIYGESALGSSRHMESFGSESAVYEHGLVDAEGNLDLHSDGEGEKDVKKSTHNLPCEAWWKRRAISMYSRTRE


Tests used:
[1] = biological target: T1, N-terminal intrinsically disordered …; assay: MST
[2] = biological target: T1, N-terminal intrinsically disordered …; assay: NMR titration

Binder | Kd [1] [µM] | binding result [2]
His6-SUMO-NcGN^AGO1 (N-coil plus globular N-domain of Arabidopsis AGO1), wild type N-coil (domain or fragment, Arabidopsis thaliana, UniProt O04379-2 172-335, looked up, red maleimide fluorophore on Cys192 (Monolith NT Protein Labeling Kit Red - Maleimide)) SSSKAFKFPMRPGKGQSGKRCIVKANHFFAELPDKDLHHYDVTITPEVTSRGVNRAVMKQLVDNYRDSHLGSRLPAYDGRKSLYTAGPLPFNSKEFRINLLDEEVGAGGQRREREFKVVIKLVARADLHHLGMFLEGKQSDAPQEAAQVADIVSRELPTSRIRY | 11 | –
His6-SUMO-NcGN^AGO1 K178E (domain or fragment, Arabidopsis thaliana, UniProt O04379-2 172-335, looked up, red maleimide fluorophore on Cys192 (Monolith NT Protein Labeling Kit Red - Maleimide)) SSSKAFEFPMRPGKGQSGKRCIVKANHFFAELPDKDLHHYDVTITPEVTSRGVNRAVMKQLVDNYRDSHLGSRLPAYDGRKSLYTAGPLPFNSKEFRINLLDEEVGAGGQRREREFKVVIKLVARADLHHLGMFLEGKQSDAPQEAAQVADIVSRELPTSRIRY | 47 | –
SSSKAFKFPMRPGKGQSGKRC (also: 15N-labeled) [15N-labeled AGO1 N-coil peptide, wild type] | – | binds
